Laboratory results from patent publication US20250243277A1 (AVACTA LIFE SCIENCES, published 2025).

Biological target: T1, human PD-L1-Fc (R&D Systems) (human, UniProt Q9NZQ7 19-239)
T1 construct: Bought from R&D Systems; Biotinylated in-house for the phage selection; also called huPD-L1-Fc; human PD-L1-Fc antigen; not shown: Fc part of the bought fusion
Assay: soluble Affimer ELISA

T1 sequence (Q9NZQ7 19-239 limits assumed): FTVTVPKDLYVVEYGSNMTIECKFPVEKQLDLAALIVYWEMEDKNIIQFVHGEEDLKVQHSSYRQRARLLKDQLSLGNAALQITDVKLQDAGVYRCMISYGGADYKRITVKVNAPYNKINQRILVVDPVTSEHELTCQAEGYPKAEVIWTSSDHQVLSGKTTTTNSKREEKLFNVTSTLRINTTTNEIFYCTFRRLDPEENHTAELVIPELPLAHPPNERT

Row | Binder | binding result
1 | Clone 181 (designed binder, His-tagged) MIPGGLSEAKPATPEIQEIVDKVKPQLEEKTGETYGKLEAVQYKTQVVKAYKVFNYIGTNYYIKVRAGDNKYMHLKVFKSLFKWDNGISDEDLVLTGYQVDKNKDDELTGF | binds
2 | Clone 217 (designed binder, His-tagged) MIPGGLSEAKPATPEIQEIVDKVKPQLEEKTGETYGKLEAVQYKTQVVKKYVIFFYEGTNYYIKVRAGDNKYMHLKVFKSLFVNKGGSDDEDLVLTGYQVDKNKDDELTGF | binds
3 | Clone 182 (designed binder, His-tagged) MIPGGLSEAKPATPEIQEIVDKVKPQLEEKTGETYGKLEAVQYKTQVVLKTNPSPSDGTNYYIKVRAGDNKYMHLKVFKSLAVFRQRLGVEDLVLTGYQVDKNKDDELTGF | binds
4 | Clone 183 (designed binder, His-tagged) MIPGGLSEAKPATPEIQEIVDKVKPQLEEKTGETYGKLEAVQYKTQVVRQTDSVKWWGTNYYIKVRAGDNKYMHLKVFKSLWYNRYYNDFEDLVLTGYQVDKNKDDELTGF | binds
5 | Clone 185 (designed binder, His-tagged) MIPGGLSEAKPATPEIQEIVDKVKPQLEEKTGETYGKLEAVQYKTQVVVVLFASGWEGTNYYIKVRAGDNKYMHLKVFKSLIQWRDHKPREDLVLTGYQVDKNKDDELTGF | binds
6 | Clone 186 (designed binder, His-tagged) MIPGGLSEAKPATPEIQEIVDKVKPQLEEKTGETYGKLEAVQYKTQVVYDNVKEYPWGTNYYIKVRAGDNKYMHLKVFKSLKWYDPTIRPEDLVLTGYQVDKNKDDELTGF | binds
7 | Clone 187 (designed binder, His-tagged) MIPGGLSEAKPATPEIQEIVDKVKPQLEEKTGETYGKLEAVQYKTQVVIQDWTVGWEGTNYYIKVRAGDNKYMHLKVFKSLRIGRSTNLWEDLVLTGYQVDKNKDDELTGF | binds
8 | Clone 254 (designed binder, His-tagged) MIPGGLSEAKPATPEIQEIVDKVKPQLEEKTGETYGKLEAVQYKTQVVISDVSVGWEGTNYYIKVRAGDNKYMHLKVFKSLRSGPAHVRREDLVLTGYQVDKNKDDELTGF | binds
9 | Clone 188 (designed binder, His-tagged) MIPGGLSEAKPATPEIQEIVDKVKPQLEEKTGETYGKLEAVQYKTQVVPQENAPWVLGTNYYIKVRAGDNKYMHLKVFKSLNWDQPDTVLEDLVLTGYQVDKNKDDELTGF | binds
10 | Clone 191 (designed binder, His-tagged) MIPGGLSEAKPATPEIQEIVDKVKPQLEEKTGETYGKLEAVQYKTQVVLRYHFPEFHGTNYYIKVRAGDNKYMHLKVFKSLNHLAIHELPEDLVLTGYQVDKNKDDELTGF | binds
11 | Clone 193 (designed binder, His-tagged) MIPGGLSEAKPATPEIQEIVDKVKPQLEEKTGETYGKLEAVQYKTQVVLRHPVQDDDGTNYYIKVRAGDNKYMHLKVFKSLAGVNRWKWIEDLVLTGYQVDKNKDDELTGF | binds
12 | Clone 195 (designed binder, His-tagged) MIPGGLSEAKPATPEIQEIVDKVKPQLEEKTGETYGKLEAVQYKTQVVVGVGRDFPKGTNYYIKVRAGDNKYMHLKVFKSLYIHYLKVNEEDLVLTGYQVDKNKDDELTGF | binds
13 | Clone 197 (designed binder, His-tagged) MIPGGLSEAKPATPEIQEIVDKVKPQLEEKTGETYGKLEAVQYKTQVVWKPQDSVNWGTNYYIKVRAGDNKYMHLKVFKSLDWDGAAGDAEDLVLTGYQVDKNKDDELTGF | binds
14 | Clone 198 (designed binder, His-tagged) MIPGGLSEAKPATPEIQEIVDKVKPQLEEKTGETYGKLEAVQYKTQVVSSPLHWELWHWSGTNYYIKVRAGDNKYMHLKVFKSLELNNKDQNDEDLVLTGYQVDKNKDDELTGF | binds
15 | Clone 199 (designed binder, His-tagged) MIPGGLSEAKPATPEIQEIVDKVKPQLEEKTGETYGKLEAVQYKTQVVRDHELVNQWGTNYYIKVRAGDNKYMHLKVFKSLFGQPVQGNTEDLVLTGYQVDKNKDDELTGF | binds
16 | Clone 2 (designed binder, His-tagged) MIPGGLSEAKPATPEIQEIVDKVKPQLEEKTGETYGKLEAVQYKTQVVASFIDIGWHGTNYYIKVRAGDNKYMHLKVFKSLREGKHGRNKEDLVLTGYQVDKNKDDELTGF | binds
17 | Clone 36 (designed binder, His-tagged) MIPGGLSEAKPATPEIQEIVDKVKPQLEEKTGETYGKLEAVQYKTQVVWSFAQVGWHGTNYYIKVRAGDNKYMHLKVFKSLRRFEHLPFYEDLVLTGYQVDKNKDDELTGF | binds
18 | Clone 20 (designed binder, His-tagged) MIPGGLSEAKPATPEIQEIVDKVKPQLEEKTGETYGKLEAVQYKTQVVANSKWHYAFGTNYYIKVRAGDNKYMHLKVFKSLDNAIYRGPTEDLVLTGYQVDKNKDDELTGF | binds

Row | Binder | binding result
19 | Clone 200 (designed binder, His-tagged) MIPGGLSEAKPATPEIQEIVDKVKPQLEEKTGETYGKLEAVQYKTQVVYGPHHQTYAGTNYYIKVRAGDNKYMHLKVFKSLYALHINRWPEDLVLTGYQVDKNKDDELTGF | binds
20 | Clone 79 (designed binder, His-tagged) MIPGGLSEAKPATPEIQEIVDKVKPQLEEKTGETYGKLEAVQYKTQVVIWHSEWSYTGTNYYIKVRAGDNKYMHLKVFKSLFTRHSEPWEEDLVLTGYQVDKNKDDELTGF | binds
21 | Clone 202 (designed binder, His-tagged) MIPGGLSEAKPATPEIQEIVDKVKPQLEEKTGETYGKLEAVQYKTQVVIRHVIWSYSGTNYYIKVRAGDNKYMHLKVFKSLWERNASLSEEDLVLTGYQVDKNKDDELTGF | binds
22 | Clone 34 (designed binder, His-tagged) MIPGGLSEAKPATPEIQEIVDKVKPQLEEKTGETYGKLEAVQYKTQVVTHLNNNAWTGTNYYIKVRAGDNKYMHLKVFKSLFFHNGKIYREDLVLTGYQVDKNKDDELTGF | binds
23 | Clone 203 (designed binder, His-tagged) MIPGGLSEAKPATPEIQEIVDKVKPQLEEKTGETYGKLEAVQYKTQVVYHGPPKEWLGTNYYIKVRAGDNKYMHLKVFKSLFFWKGNGYREDLVLTGYQVDKNKDDELTGF | binds
24 | Clone 204 (designed binder, His-tagged) MIPGGLSEAKPATPEIQEIVDKVKPQLEEKTGETYGKLEAVQYKTQVVSLRPHEQLYGTNYYIKVRAGDNKYMHLKVFKSLHLKLWKIPNEDLVLTGYQVDKNKDDELTGF | binds
25 | Clone 206 (designed binder, His-tagged) MIPGGLSEAKPATPEIQEIVDKVKPQLEEKTGETYGKLEAVQYKTQVVRADVNVIWWGTNYYIKVRAGDNKYMHLKVFKSLPVKYKEILLEDLVLTGYQVDKNKDDELTGF | binds
26 | Clone 209 (designed binder, His-tagged) MIPGGLSEAKPATPEIQEIVDKVKPQLEEKTGETYGKLEAVQYKTQVVIAKEENHWRGTNYYIKVRAGDNKYMHLKVFKSLHYYQDVLYREDLVLTGYQVDKNKDDELTGF | binds
27 | Clone 21 (designed binder, His-tagged) MIPGGLSEAKPATPEIQEIVDKVKPQLEEKTGETYGKLEAVQYKTQVVKRPHFLQFSGTNYYIKVRAGDNKYMHLKVFKSLNIGPAKKQLEDLVLTGYQVDKNKDDELTGF | binds
28 | Clone 210 (designed binder, His-tagged) MIPGGLSEAKPATPEIQEIVDKVKPQLEEKTGETYGKLEAVQYKTQVVWEYAGDYLEGTNYYIKVRAGDNKYMHLKVFKSLFHGIWWARVEDLVLTGYQVDKNKDDELTGF | binds
29 | Clone 211 (designed binder, His-tagged) MIPGGLSEAKPATPEIQEIVDKVKPQLEEKTGETYGKLEAVQYKTQVVTHPEDAYSWGTNYYIKVRAGDNKYMHLKVFKSLLKPGGLLDFEDLVLTGYQVDKNKDDELTGF | binds
30 | Clone 212 (designed binder, His-tagged) MIPGGLSEAKPATPEIQEIVDKVKPQLEEKTGETYGKLEAVQYKTQVVYAFITPVTHGTNYYIKVRAGDNKYMHLKVFKSLWLNNFGKNFEDLVLTGYQVDKNKDDELTGF | binds
31 | Clone 213 (designed binder, His-tagged) MIPGGLSEAKPATPEIQEIVDKVKPQLEEKTGETYGKLEAVQYKTQVVKQHTKEWAPGTNYYIKVRAGDNKYMHLKVFKSLWNHLYHYPFEDLVLTGYQVDKNKDDELTGF | binds
32 | Clone 24 (designed binder, His-tagged) MIPGGLSEAKPATPEIQEIVDKVKPQLEEKTGETYGKLEAVQYKTQVVEEGTPEWAPGTNYYIKVRAGDNKYMHLKVFKSLWSDVLYNDFEDLVLTGYQVDKNKDDELTGF | binds
33 | Clone 225 (designed binder, His-tagged) MIPGGLSEAKPATPEIQEIVDKVKPQLEEKTGETYGKLEAVQYKTQVVDLHTPHYAPGTNYYIKVRAGDNKYMHLKVFKSLWNTLLEFGGEDLVLTGYQVDKNKDDELTGF | binds
34 | Clone 214 (designed binder, His-tagged) MIPGGLSEAEPATPEIQEIVDKVKPQLEEKTGETYGKLEAVQYKTQVVIKIHHGSWEGTNYYIKVRAGDNKYMHLKVFKSLLFWQKQFYREDLVLTGYQVDKNKDDELTGF | binds
35 | Clone 215 (designed binder, His-tagged) MIPGGLSEAKPATPEIQEIVDKVKPQLEEKTGETYGKLEAVQYKTQVVRRVFFPEFPGTNYYIKVRAGDNKYMHLKVFKSLEQPIEGDLWEDLVLTGYQVDKNKDDELTGF | binds
